Key:
Conditions in all cases: both partners purified
[1] = target: T1, gp120 (HIV strain BL035.W6M.C1) (HIV-1 strain BL035.W6M.C1); experiment: BLI; mAb lineage members captured on anti-human IgG Fc biosensors (ligand); monomeric gp41 ectodomain or BL035.W6M.C1 gp120 as analyte at 62.5 nM
T1 construct: gp120, the surface subunit cut from HIV-1 Env gp160, strain BL035.W6M.C1 (clade A); Called monomeric in the legends; also called monomeric BL035.W6M.C1 gp120; monomeric gp120; source: bought: Immune Technology Corp

[2] = target: T1, gp120 (HIV strain BL035.W6M.C1); experiment: BLI; 157-lineage naive antibodies as ligand; monomeric BL035 gp120 as analyte at 250 nM; without the double reference approach
[3] = target: T2, gp41 ectodomain (HIV strain C.ZA.1197MB) (HIV-1 strain C.ZA.1197MB); experiment: BLI; Octet RED; mAb (8 µg/mL) captured on anti-human IgG Fc biosensors (ligand); monomeric gp41 ectodomain or gp120 as analyte in a series of up to six two-fold dilutions; 30°C; 1X PBS, 0.1% BSA, 0.005% Tween-20, 0.02% sodium azide; association 180 s, dissociation 180 s; double referencing; 1:1 model
T2 construct: gp41 ectodomain of HIV-1 Env, strain C.ZA.1197MB (clade C); Called monomeric in the legends; also called monomeric C.ZA.1197MB gp41 ectodomain; clade C gp41 ectodomain; source: bought: Immune Technology Corp
T2 chain: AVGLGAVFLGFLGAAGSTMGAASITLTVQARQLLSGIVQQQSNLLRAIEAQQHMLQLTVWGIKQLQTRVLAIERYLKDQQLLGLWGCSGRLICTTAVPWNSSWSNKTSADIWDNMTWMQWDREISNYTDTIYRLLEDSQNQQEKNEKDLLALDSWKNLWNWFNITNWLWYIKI

B1: 105-1VH1VK (antibody, V domains shown)
VH: EVQLVESGGGLVKPGGSLRLSCAASGFSFTNAYMSWVRQAPGKGLEWVGRIKSKADDGTTDYAAPVKGRFTISRDDSKNTLYLQMNSLKTEDTAVYYCTTGVMIANQDSYYYMDVWGKGTTVAVSS
VL: not shown
notes: Whole human IgG1, kappa; source: HEK 293F, co-transfected, purified (protein G)
[1]
  binding result: binds

B2: 157-0VHAVK (antibody, V domains shown)
VH: QVQLVQSGAEVKKPGSSVKVSCKASGGTFSSYAISWVRQAPGQGLEWMGGIIPILGIANYAQKFQGRVTITADESTSTAYMELSSLRSEDTAVYYCARGKVSSSDWFQPIYYYYMDVWGGGTTVTVSS
VL: EIVMTQSPATLSVSPGERATLSCRASQSISSYLAWYQQKPGQAPRLLIYDASNRATGIPARFSGSGSGTDFTLTISSLEPEDFAVYYCQQRSNSLPFGQGTRLEIK
notes: as for B1
[2]
  binding result: no binding (tested: 250 nM)

B3: 072-0VH0VK (antibody, V domains shown)
VH: QVQLVQSGAEVKKPGSSVKVSCKASGGTFSSYAISWVRQAPGQGLEWMGGIIPILGIANYAQKFQGRVTITADESTSTAYMELSSLRSEDTAVYYCARHYDDSSGFFYGAFDIWGQGTTLTVSS
VL: DIQMTQSPSSLSASVGDRVTITCRASQGISNYLAWYQQKPGKVPKLLIYAASTLQSGVPSRFSGSGSGTDFTLTISSLQPEDVATYYCQKYNSAPWTFGQGTKVEIK
notes: 072-0VH, inferred naive heavy chain variable region (VH 1-69*11, DH 4-17*01, JH 3*02); 072-0VK, inferred naive kappa variable region (VK 1-27*01, JK 1*01); Whole human IgG1, kappa (Igγ1 vector Addgene 80795, Igκ vector Addgene 80796); also called 072 lineage inferred naive mAb; inferred naive precursor of the 072 lineage; source: HEK 293F, co-transfected, purified (protein G)
[3]
  Kd: 34.4 nM

From article PMC7884072, “Development of antibody-dependent cell cytotoxicity function in HIV-1 antibodies” (eLife, 2021)
